Measured values published in paper PMC12624148.
Several values for one entry are separate records, joined by “and”; a condition that tells them apart may be missing. Equal entries are not always repeated.

Key:
[1] = target: H3T3 phosphorylated nucleosome core particle (H3T3ph NCP) (UniProt P62805); experiment: mass photometry; CPC-NCP complexes diluted to 20 nM (legend of Fig. EV1D: 50 nM) in 20 mM HEPES pH 8.0, 50 mM NaCl, 1 mM EDTA, 1 mM DTT; Refeyn TwoMP; Gaussian fitting of mass populations
[2] = target: CPC I1-190 SB dloop del110-206;Borealin (UniProt Q9NQS7+O15392+Q53HL2); experiment: EMSA; settings: histone H3 T3ph (native ligation, H3T32C); EMSA: 20 nM NCP, 10 mM Tris pH 7.5, 250 mM NaCl, 1 mM MgCl2, 1 mM DTT, 1% glycerol, 0.1 mg/ml BSA, 1 h on ice; gel at 4 C. SPR buffer not in the material
[3] = target: H3T3 phosphorylated nucleosome core particle (H3T3ph NCP) (UniProt P62805); experiment: native gel or EMSA; 20 nM H3T3ph NCPs wrapped with centromeric α-satellite DNA; CPC 7.8 nM to 2 µM, 1 h on ice; 10 mM Tris pH 7.5, 250 mM NaCl, 1 mM MgCl2, 1 mM DTT, 1% glycerol, 0.1 mg/ml BSA; gel at 4 °C; unbound NCP band quantified, specific binding with Hill slope
[4] = target: CPC I1-190 6A SB R65A;R66A;K67A;K68A;R69A;R70A;INCENP (UniProt Q9NQS7+O15392+Q53HL2); experiment: EMSA; settings: histone H3 T3ph; EMSA: 20 nM NCP, 10 mM Tris pH 7.5, 250 mM NaCl, 1 mM MgCl2, 1 mM DTT, 1% glycerol, 0.1 mg/ml BSA, 1 h on ice; gel at 4 C. SPR buffer not in the material
[5] = target: CPC I1-190 6A SB dloop R65A;R66A;K67A;K68A;R69A;R70A;internal_change (UniProt Q9NQS7+O15392+Q53HL2); experiment: EMSA; settings: histone H3 T3ph; EMSA: 20 nM NCP, 10 mM Tris pH 7.5, 250 mM NaCl, 1 mM MgCl2, 1 mM DTT, 1% glycerol, 0.1 mg/ml BSA, 1 h on ice; gel at 4 C. SPR buffer not in the material

Question: Which stoichiometry N [1] does the source give for “CPC_(I1-58SBS266D) (containing INCENP 1-58, full-length Survivin and full-length Borealin dimer breaking mutant, S266D) (from UniProt Q53HL2 1-280; O15392 1-142; Q9NQS7 1-58) (complex)” here?
Answer: The stoichiometry N was 1 CPC per NCP and 2 CPC per NCP.

Question: With “ACAGGATGTATATATGTGACACGTGCCTGGAGACTAGGGAGTAATCCCCTTGGCGGTTAAAACGCGGGGGACAGCGCGTACGTGCGTTTAAGCGGTGCTAGAGCTGTCTACGACCAATTGAGCGGCCTCGGCACCGGGATTCTCCAG (double strand) [H3T3ph NCP, Widom 601 147 bp]” as the substance, how does the fold decrease in binding affinity vs P1 (fold decrease in affinity vs P1) [2] read?
Answer: The fold decrease in binding affinity vs P1 (fold decrease in affinity vs P1) was 12.

Question: For “CPC_(I1-190SB) (CPC containing INCENP 1-190, full-length Survivin and full-length Borealin) (from UniProt Q53HL2 1-280; O15392 1-142; Q9NQS7 1-190) (complex)”, which stoichiometry N [1] is on record?
Answer: Its stoichiometry N is 2 CPC per NCP.

Question: With “CPC_(I1-190 6ASB) (INCENP with RRKKRR mutated to AAAAAA) (from UniProt Q53HL2 1-280; O15392 1-142; Q9NQS7 1-190) (complex)” as the substance, how does the times weaker binding against CPC (I1-190SB) [3] read?
Answer: Its times weaker binding against CPC (I1-190SB) is 1.5 times.

Question: For “CPC_(I1-58SB) (containing INCENP 1-58, full-length Survivin and full-length Borealin) (from UniProt Q53HL2 1-280; O15392 1-142; Q9NQS7 1-58) (complex)”, which stoichiometry N [1] is on record?
Answer: Its stoichiometry N is 2 CPC per NCP and 1 CPC per NCP.

Question: Which binding signal (fold weaker vs P1) [4] does the source give for H3T3ph NCP, alpha-satellite 147 bp here?
Answer: Its binding signal (fold weaker vs P1) is 1.5.

Question: What about the binding signal [5] of the same substance?
Answer: The binding signal was 13 fold.
